Assay results taken from paper PMC8938434, “Atomic resolution dynamics of cohesive interactions in phase-separated Nup98 FG domains” (Nature Communications, 2022).

T1: prf.GLFG_(52 × 12)
T1 construct: engineered from the Tetrahymena thermophila MacNup98A FG domain; plasmid pSNG064; Isotope-labelled (15N, 13C) for NMR; also called perfect repeat; source: E. coli, inclusion bodies, Ni(II) chelate column, tag cut off with bdSENP1 protease, lyophilized; not shown: His14-ZZ-scSUMO, N-terminal, cleaved
T1 chain: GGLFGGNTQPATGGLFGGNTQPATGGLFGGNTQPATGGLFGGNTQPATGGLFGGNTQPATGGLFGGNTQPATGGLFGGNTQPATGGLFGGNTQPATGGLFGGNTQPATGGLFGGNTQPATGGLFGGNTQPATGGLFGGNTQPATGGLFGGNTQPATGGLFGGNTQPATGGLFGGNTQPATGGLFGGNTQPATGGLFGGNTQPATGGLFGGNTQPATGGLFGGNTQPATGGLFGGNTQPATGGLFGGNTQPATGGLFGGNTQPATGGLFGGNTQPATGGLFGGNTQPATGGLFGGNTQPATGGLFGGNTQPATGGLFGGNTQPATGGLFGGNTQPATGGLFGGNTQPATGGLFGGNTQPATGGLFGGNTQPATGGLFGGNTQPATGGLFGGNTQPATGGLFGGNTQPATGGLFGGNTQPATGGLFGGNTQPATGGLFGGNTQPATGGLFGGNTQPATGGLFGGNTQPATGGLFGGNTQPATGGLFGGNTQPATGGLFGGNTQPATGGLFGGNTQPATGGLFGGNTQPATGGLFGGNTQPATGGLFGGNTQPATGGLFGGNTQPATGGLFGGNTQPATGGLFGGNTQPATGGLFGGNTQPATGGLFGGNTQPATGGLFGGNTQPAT

B1: Atto488-coupled GXFG//L_(52 × 12) (other)
chain: GSGGFGNTGLAPAGGTFGNTQLQQGGGQFGQPQLTQGGGAFGQTGLTTGGGNFGGATLTAPGGGFGGGGLNPTGGNFGGNNLQQTGGTFGQGTLQTGGGNFGAPQLNQGGGTFGGGTLTTGGGQFGANTLTGGGGQFGGPSLPTTAGPFGSNNLTTGGGNFGQPALTNNGGNFGGQTLNQASGQFGANNLPPTNGKFGNNNLPQTAGTFGGATLTGNTGNFGGANLTGGGGNFGNNTLNPTGGPFGATNLAGGGGTFGGGALTGGGGTFGGGNLQTGGGTFGTANLTTAGGTFGGGNLQPQNGTFGNNNLPATGGNFGQTNLAAPQGNFGGTNLNAASGAFGQKPLSANGVLTKPNEKNLCYAISNGTDFCIFELALTQRKLVKAGQLKPGAQAGGQFGQPALNTQGGAFGGGGLATTPGNFGGAQLNTTGGTFGGQNLQAGGGNFGAPNLAAATGAFGAGNLNTQGGAFGAKPLATGGGQFGQPALTQAGGQFGNTALPAGGGTFGGATLTPGGGAFGGNTLATGGGQFGGNTLGATGGPFGGQQLNNQGGAFGNTNLNTGGGTFGGATLTTGGGGFGGSTLATGGGQFGGASLPAAGGPFGGAALQQNSGAFGGATLGQTGGQFGGATLQQGGGSFGQTALNPGGGAFGAANLTTQPGQFGGNNLAATTSC
modifications: Atto488 (coupled)
B2: Atto488-coupled GLFG_(52 × 12) (other)
chain: GSGLFGNTGGAPAGGLFGNTQTQQGGGLFGQPQQTQGGGLFGQTGATTGGGLFGGATNTAPGGLFGGGGGNPTGGLFGGNNNQQTGGLFGQGTTQTGGGLFGAPQNNQGGGLFGGGTTTTGGGLFGANTQTGGGGLFGGPSQPTTAGLFGSNNPTTGGGLFGQPANTNNGGLFGGQTNNQASGLFGANNQPPTNGLFGNNNKPQTAGLFGGATTTGNTGLFGGANNTGGGGLFGNNTNNPTGGLFGATNPAGGGGLFGGGATTGGGGLFGGGNTQTGGGLFGTANTTTAGGLFGGGNTQPQNGLFGNNNTPATGGLFGQTNNAAPQGLFGGTNNNAASGLFGQKPASANGVLTKPNEKNLCYAISNGTDFCIFELALTQRKLVKAGQLKPGAQAGGLFGQPAQNTQGGLFGGGGAATTPGLFGGAQNNTTGGLFGGQNTQAGGGLFGAPNNAAATGLFGAGNANTQGGLFGAKPAATGGGLFGQPAQTQAGGLFGNTAQPAGGGLFGGATTTPGGGLFGGNTAATGGGLFGGNTQGATGGLFGGQQPNNQGGLFGNTNANTGGGLFGGATTTTGGGLFGGSTGATGGGLFGGASQPAAGGLFGGAAPQQNSGLFGGATAGQTGGLFGGATQQQGGGLFGQTASNPGGGLFGAANATTQPGLFGGNNQAATSC
modifications: Atto488 (coupled)
B3: Atto488-coupled GAFG_(52 × 12) (other)
chain: GSGAFGNTGGAPAGGAFGNTQTQQGGGAFGQPQQTQGGGAFGQTGATTGGGAFGGATNTAPGGAFGGGGGNPTGGAFGGNNNQQTGGAFGQGTTQTGGGAFGAPQNNQGGGAFGGGTTTTGGGAFGANTQTGGGGAFGGPSQPTTAGAFGSNNPTTGGGAFGQPANTNNGGAFGGQTNNQASGAFGANNQPPTNGAFGNNNKPQTAGAFGGATTTGNTGAFGGANNTGGGGAFGNNTNNPTGGAFGATNPAGGGGAFGGGATTGGGGAFGGGNTQTGGGAFGTANTTTAGGAFGGGNTQPQNGAFGNNNTPATGGAFGQTNNAAPQGAFGGTNNNAASGAFGQKPASANGVLTKPNEKNLCYAISNGTDFCIFELALTQRKLVKAGQLKPGAQAGGAFGQPAQNTQGGAFGGGGAATTPGAFGGAQNNTTGGAFGGQNTQAGGGAFGAPNNAAATGAFGAGNANTQGGAFGAKPAATGGGAFGQPAQTQAGGAFGNTAQPAGGGAFGGATTTPGGGAFGGNTAATGGGAFGGNTQGATGGAFGGQQPNNQGGAFGNTNANTGGGAFGGATTTTGGGAFGGSTGATGGGAFGGASQPAAGGAFGGAAPQQNSGAFGGATAGQTGGAFGGATQQQGGGAFGQTASNPGGGAFGAANATTQPGAFGGNNQAATTSC
modifications: Atto488 (coupled)
B4: GXFG//V_(52 × 12) (other)
chain: GGFGNTGVAPAGGTFGNTQVQQGGGQFGQPQVTQGGGAFGQTGVTTGGGNFGGATVTAPGGGFGGGGVNPTGGNFGGNNVQQTGGTFGQGTVQTGGGNFGAPQVNQGGGTFGGGTVTTGGGQFGANTVTGGGGQFGGPSVPTTAGPFGSNNVTTGGGNFGQPAVTNNGGNFGGQTVNQASGQFGANNVPPTNGKFGNNNVPQTAGTFGGATVTGNTGNFGGANVTGGGGNFGNNTVNPTGGPFGATNVAGGGGTFGGGAVTGGGGTFGGGNVQTGGGTFGTANVTTAGGTFGGGNVQPQNGTFGNNNVPATGGNFGQTNVAAPQGNFGGTNVNAASGAFGQKPVSANGVLTKPNEKNLCYAISNGTDFCIFELALTQRKLVKAGQLKPGAQAGGQFGQPAVNTQGGAFGGGGVATTPGNFGGAQVNTTGGTFGGQNVQAGGGNFGAPNVAAATGAFGAGNVNTQGGAFGAKPVATGGGQFGQPAVTQAGGQFGNTAVPAGGGTFGGATVTPGGGAFGGNTVATGGGQFGGNTVGATGGPFGGQQVNNQGGAFGNTNVNTGGGTFGGATVTTGGGGFGGSTVATGGGQFGGASVPAAGGPFGGAAVQQNSGAFGGATVGQTGGQFGGATVQQGGGSFGQTAVNPGGGAFGAANVTTQPGQFGGNNVAATSC
B5: GLLG_(52 × 12) (other)
chain: GSGLLGNTGGAPAGGLLGNTQTQQGGGLLGQPQQTQGGGLLGQTGATTGGGLLGGATNTAPGGLLGGGGGNPTGGLLGGNNNQQTGGLLGQGTTQTGGGLLGAPQNNQGGGLLGGGTTTTGGGLLGANTQTGGGGLLGGPSQPTTAGLLGSNNPTTGGGLLGQPANTNNGGLLGGQTNNQASGLLGANNQPPTNGLLGNNNKPQTAGLLGGATTTGNTGLLGGANNTGGGGLLGNNTNNPTGGLLGATNPAGGGGLLGGGATTGGGGLLGGGNTQTGGGLLGTANTTTAGGLLGGGNTQPQNGLLGNNNTPATGGLLGQTNNAAPQGLLGGTNNNAASGLLGQKPASANGVLTKPNEKNLCYAISNGTDFCIFELALTQRKLVKAGQLKPGAQAGGLLGQPAQNTQGGLLGGGGAATTPGLLGGAQNNTTGGLLGGQNTQAGGGLLGAPNNAAATGLLGAGNANTQGGLLGAKPAATGGGLLGQPAQTQAGGLLGNTAQPAGGGLLGGATTTPGGGLLGGNTAATGGGLLGGNTQGATGGLLGGQQPNNQGGLLGNTNANTGGGLLGGATTTTGGGLLGGSTGATGGGLLGGASQPAAGGLLGGAAPQQNSGLLGGATAGQTGGLLGGATQQQGGGLLGQTASNPGGGLLGAANATTQPGLLGGNNQAATSC
B6: GXFG//L_(52 × 12) (other)
chain: GGFGNTGLAPAGGTFGNTQLQQGGGQFGQPQLTQGGGAFGQTGLTTGGGNFGGATLTAPGGGFGGGGLNPTGGNFGGNNLQQTGGTFGQGTLQTGGGNFGAPQLNQGGGTFGGGTLTTGGGQFGANTLTGGGGQFGGPSLPTTAGPFGSNNLTTGGGNFGQPALTNNGGNFGGQTLNQASGQFGANNLPPTNGKFGNNNLPQTAGTFGGATLTGNTGNFGGANLTGGGGNFGNNTLNPTGGPFGATNLAGGGGTFGGGALTGGGGTFGGGNLQTGGGTFGTANLTTAGGTFGGGNLQPQNGTFGNNNLPATGGNFGQTNLAAPQGNFGGTNLNAASGAFGQKPLSANGVLTKPNEKNLCYAISNGTDFCIFELALTQRKLVKAGQLKPGAQAGGQFGQPALNTQGGAFGGGGLATTPGNFGGAQLNTTGGTFGGQNLQAGGGNFGAPNLAAATGAFGAGNLNTQGGAFGAKPLATGGGQFGQPALTQAGGQFGNTALPAGGGTFGGATLTPGGGAFGGNTLATGGGQFGGNTLGATGGPFGGQQLNNQGGAFGNTNLNTGGGTFGGATLTTGGGGFGGSTLATGGGQFGGASLPAAGGPFGGAALQQNSGAFGGATLGQTGGQFGGATLQQGGGSFGQTALNPGGGAFGAANLTTQPGQFGGNNLAATTS
B7: GLFG_(52 × 12) (other)
chain: GLFGNTGGAPAGGLFGNTQTQQGGGLFGQPQQTQGGGLFGQTGATTGGGLFGGATNTAPGGLFGGGGGNPTGGLFGGNNNQQTGGLFGQGTTQTGGGLFGAPQNNQGGGLFGGGTTTTGGGLFGANTQTGGGGLFGGPSQPTTAGLFGSNNPTTGGGLFGQPANTNNGGLFGGQTNNQASGLFGANNQPPTNGLFGNNNKPQTAGLFGGATTTGNTGLFGGANNTGGGGLFGNNTNNPTGGLFGATNPAGGGGLFGGGATTGGGGLFGGGNTQTGGGLFGTANTTTAGGLFGGGNTQPQNGLFGNNNTPATGGLFGQTNNAAPQGLFGGTNNNAASGLFGQKPASANGVLTKPNEKNLCYAISNGTDFCIFELALTQRKLVKAGQLKPGAQAGGLFGQPAQNTQGGLFGGGGAATTPGLFGGAQNNTTGGLFGGQNTQAGGGLFGAPNNAAATGLFGAGNANTQGGLFGAKPAATGGGLFGQPAQTQAGGLFGNTAQPAGGGLFGGATTTPGGGLFGGNTAATGGGLFGGNTQGATGGLFGGQQPNNQGGLFGNTNANTGGGLFGGATTTTGGGLFGGSTGATGGGLFGGASQPAAGGLFGGAAPQQNSGLFGGATAGQTGGLFGGATQQQGGGLFGQTASNPGGGLFGAANATTQPGLFGGNNQAATSC

Target: T1, prf.GLFG_(52 × 12)
Assay: partition of Atto488-coupled FG domains into FG particles (confocal laser scanning microscopy); 20 μM unlabelled prf.GLFG_(52 × 12) premixed with 0.5 μM Atto488-labelled species (GAFG: 3 μM); 20 mM NaPi pH 6.8, 150 mM NaCl, 5 mM DTT; 21 °C; apparent partition coefficient = Atto488 signal IN: OUT of the FG particles
Conditions: both partners purified

Point of comparison: B3, partition coefficient 4. Against it:
- B1 — higher, > 1000
- B2 — higher, > 1000

Target: the molecule itself
Assay: co-sedimentation; centrifugation assay of phase separation of GLFG_(52 × 12) variants at 25 °C, [FG domain] = 10 μM, [NaCl] = 150 mM, 20 mM NaPi pH 6.8, 5 mM DTT; repeated at 100 μM for GAFG, GLLG and GLAG; critical concentration = concentration of the supernatant
Conditions: not given

Point of comparison: B4, “critical concentration for phase separation” value 8 µM. Against it:
- B5 — higher, > 100 µM
- B6 — 10-fold lower, 0.8 µM
- B7 — 80-fold lower, 0.1 µM
